IC50 and Maximum % inhibition data for 15 molecules are collected here from US20220024981A1 (Novartis, published 2022).

B1: Ac*-F-V-D-T-T-F-(N-Me)A-B-(N-Me)A-E-S-P-C*-G-NH2 (peptide)
peptide: {CH2CO}-FVDTTF[NMeA][Bip][NMeA]ESPCG-NH2
modifications: thioether N-13
SMILES: CC(C)[C@@H]1NC(=O)[C@H](Cc2ccccc2)NC(=O)CSC[C@@H](C(=O)NCC(N)=O)NC(=O)[C@@H]2CCCN2C(=O)[C@H](CO)NC(=O)[C@H](CCC(=O)O)NC(=O)[C@H](C)N(C)C(=O)[C@H](Cc2ccc(-c3ccccc3)cc2)NC(=O)[C@H](C)N(C)C(=O)[C@H](Cc2ccccc2)NC(=O)[C@H]([C@@H](C)O)NC(=O)[C@H]([C@@H](C)O)NC(=O)[C@H](CC(=O)O)NC1=O
notes: also called 1-17; Ex. No. 1-17
B2: Ac*-F-V-N-T-T-A-(N-Me)F-B-(N-Me)A-Q-A-P-C*-G-NH2 (peptide)
peptide: {CH2CO}-FVNTTA[NMeF][Bip][NMeA]QAPCG-NH2
modifications: thioether N-13
SMILES: CC(C)[C@@H]1NC(=O)[C@H](Cc2ccccc2)NC(=O)CSC[C@@H](C(=O)NCC(N)=O)NC(=O)[C@@H]2CCCN2C(=O)[C@H](C)NC(=O)[C@H](CCC(N)=O)NC(=O)[C@H](C)N(C)C(=O)[C@H](Cc2ccc(-c3ccccc3)cc2)NC(=O)[C@H](Cc2ccccc2)N(C)C(=O)[C@H](C)NC(=O)[C@H]([C@@H](C)O)NC(=O)[C@H]([C@@H](C)O)NC(=O)[C@H](CC(N)=O)NC1=O
notes: also called 1-18; Ex. No. 1-18
B3: Ac*-F-V-S-T-T-B-(N-Me)A-B-(N-Me)A-D-R-P-C*-NH2 (peptide)
peptide: {CH2CO}-FVSTT[Bip][NMeA][Bip][NMeA]DRPC-NH2
modifications: thioether N-13
SMILES: CC(C)[C@@H]1NC(=O)[C@H](Cc2ccccc2)NC(=O)CSC[C@@H](C(N)=O)NC(=O)[C@@H]2CCCN2C(=O)[C@H](CCCNC(=N)N)NC(=O)[C@H](CC(=O)O)NC(=O)[C@H](C)N(C)C(=O)[C@H](Cc2ccc(-c3ccccc3)cc2)NC(=O)[C@H](C)N(C)C(=O)[C@H](Cc2ccc(-c3ccccc3)cc2)NC(=O)[C@H]([C@@H](C)O)NC(=O)[C@H]([C@@H](C)O)NC(=O)[C@H](CO)NC1=O
notes: also called 2-4; Ex. No. 2-4
B4: Ac*-F-E-N-T-T-F-(N-Me)A-B-(N-Me)A-A-S-P-C*-G-NH2 (peptide)
peptide: {CH2CO}-FENTTF[NMeA][Bip][NMeA]ASPCG-NH2
modifications: thioether N-13
SMILES: C[C@@H]1NC(=O)[C@H](C)N(C)C(=O)[C@H](Cc2ccc(-c3ccccc3)cc2)NC(=O)[C@H](C)N(C)C(=O)[C@H](Cc2ccccc2)NC(=O)[C@H]([C@@H](C)O)NC(=O)[C@H]([C@@H](C)O)NC(=O)[C@H](CC(N)=O)NC(=O)[C@H](CCC(=O)O)NC(=O)[C@H](Cc2ccccc2)NC(=O)CSC[C@@H](C(=O)NCC(N)=O)NC(=O)[C@@H]2CCCN2C(=O)[C@H](CO)NC1=O
notes: also called 1-27; Ex. No. 1-27
B5: Ac*-F-V-HomoSer-T-T-F-(N-Me)A-(p-Cl)F-(N-Me)A-D-A-P-C*-NH2 (peptide)
peptide: {CH2CO}-FV[hSer]TTF[NMeA][Phe(4-Cl)][NMeA]DAPC-NH2
modifications: thioether N-13
SMILES: CC(C)[C@@H]1NC(=O)[C@H](Cc2ccccc2)NC(=O)CSC[C@@H](C(N)=O)NC(=O)[C@@H]2CCCN2C(=O)[C@H](C)NC(=O)[C@H](CC(=O)O)NC(=O)[C@H](C)N(C)C(=O)[C@H](Cc2ccc(Cl)cc2)NC(=O)[C@H](C)N(C)C(=O)[C@H](Cc2ccccc2)NC(=O)[C@H]([C@@H](C)O)NC(=O)[C@H]([C@@H](C)O)NC(=O)[C@H](CCO)NC1=O
notes: also called 2-3; Ex. No. 2-3
B6: Ac*-F-V-S-T-T-F-(N-Me)A-B-(N-Me)A-E-A-P-C*-G-NH2 (peptide)
peptide: FVSTTFAXAEAPCG
modifications: not fully specified; N-terminal acetyl (Ac*) joined by a sulfide bond to the side chain of Cys13 (cyclic); 7: L-(N-Me)Ala; 8: L-Bip; 9: L-(N-Me)Ala; C-terminal amide (NH2)
notes: also called 1-24; Ex. No. 1-24
B7: Ac*-F-V-D-T-T-A-(N-Me)F-B-(N-Me)A-E-A-P-C*-G-NH2 (peptide)
peptide: {CH2CO}-FVDTTA[NMeF][Bip][NMeA]EAPCG-NH2
modifications: thioether N-13
SMILES: CC(C)[C@@H]1NC(=O)[C@H](Cc2ccccc2)NC(=O)CSC[C@@H](C(=O)NCC(N)=O)NC(=O)[C@@H]2CCCN2C(=O)[C@H](C)NC(=O)[C@H](CCC(=O)O)NC(=O)[C@H](C)N(C)C(=O)[C@H](Cc2ccc(-c3ccccc3)cc2)NC(=O)[C@H](Cc2ccccc2)N(C)C(=O)[C@H](C)NC(=O)[C@H]([C@@H](C)O)NC(=O)[C@H]([C@@H](C)O)NC(=O)[C@H](CC(=O)O)NC1=O
notes: also called 1-16; Ex. No. 1-16
B8: Ac*-F-V-P-T-T-A-(N-Me)F-B-(N-Me)A-E-A-P-C*-G-NH2 (peptide)
peptide: {CH2CO}-FVPTTA[NMeF][Bip][NMeA]EAPCG-NH2
modifications: thioether N-13; not fully specified
notes: The three-letter form of the same entry prints L-Arg at position 11 where the one-letter form prints A; also called 1-21; Ex. No. 1-21
B9: Ac*-F-V-A-T-T-F-(N-Me)A-B-(N-Me)A-K-A-P-C*-G-NH2 (peptide)
peptide: {CH2CO}-FVATTF[NMeA][Bip][NMeA]KAPCG-NH2
modifications: thioether N-13
SMILES: CC(C)[C@@H]1NC(=O)[C@H](Cc2ccccc2)NC(=O)CSC[C@@H](C(=O)NCC(N)=O)NC(=O)[C@@H]2CCCN2C(=O)[C@H](C)NC(=O)[C@H](CCCCN)NC(=O)[C@H](C)N(C)C(=O)[C@H](Cc2ccc(-c3ccccc3)cc2)NC(=O)[C@H](C)N(C)C(=O)[C@H](Cc2ccccc2)NC(=O)[C@H]([C@@H](C)O)NC(=O)[C@H]([C@@H](C)O)NC(=O)[C@H](C)NC1=O
notes: also called 1-22; Ex. No. 1-22
B10: Ac*-F-V-N-T-T-F-(N-Me)A-B-(N-Me)A-K-A-P-C*-G-NH2 (peptide)
peptide: {CH2CO}-FVNTTF[NMeA][Bip][NMeA]KAPCG-NH2
modifications: thioether N-13
SMILES: CC(C)[C@@H]1NC(=O)[C@H](Cc2ccccc2)NC(=O)CSC[C@@H](C(=O)NCC(N)=O)NC(=O)[C@@H]2CCCN2C(=O)[C@H](C)NC(=O)[C@H](CCCCN)NC(=O)[C@H](C)N(C)C(=O)[C@H](Cc2ccc(-c3ccccc3)cc2)NC(=O)[C@H](C)N(C)C(=O)[C@H](Cc2ccccc2)NC(=O)[C@H]([C@@H](C)O)NC(=O)[C@H]([C@@H](C)O)NC(=O)[C@H](CC(N)=O)NC1=O
notes: also called 1-23; Ex. No. 1-23
B11: Ac*-F-V-P-T-T-F-(N-Me)A-B-(N-Me)A-E-A-P-C*-NHEt (peptide)
peptide: {CH2CO}-FVPTTF[NMeA][Bip][NMeA]EAPC-NHEt
modifications: thioether N-13
SMILES: CCNC(=O)[C@@H]1CSCC(=O)N[C@@H](Cc2ccccc2)C(=O)N[C@@H](C(C)C)C(=O)N2CCC[C@H]2C(=O)N[C@@H]([C@@H](C)O)C(=O)N[C@@H]([C@@H](C)O)C(=O)N[C@@H](Cc2ccccc2)C(=O)N(C)[C@@H](C)C(=O)N[C@@H](Cc2ccc(-c3ccccc3)cc2)C(=O)N(C)[C@@H](C)C(=O)N[C@@H](CCC(=O)O)C(=O)N[C@@H](C)C(=O)N2CCC[C@H]2C(=O)N1
notes: also called 3-2; Ex. No. 3-2
B12: Ac*-F-V-P-T-T-F-(N-Me)A-(p-Cl)F-(N-Me)A-D-A-P-C*-NH2 (peptide)
peptide: {CH2CO}-FVPTTF[NMeA][Phe(4-Cl)][NMeA]DAPC-NH2
modifications: thioether N-13
SMILES: CC(C)[C@@H]1NC(=O)[C@H](Cc2ccccc2)NC(=O)CSC[C@@H](C(N)=O)NC(=O)[C@@H]2CCCN2C(=O)[C@H](C)NC(=O)[C@H](CC(=O)O)NC(=O)[C@H](C)N(C)C(=O)[C@H](Cc2ccc(Cl)cc2)NC(=O)[C@H](C)N(C)C(=O)[C@H](Cc2ccccc2)NC(=O)[C@H]([C@@H](C)O)NC(=O)[C@H]([C@@H](C)O)NC(=O)[C@@H]2CCCN2C1=O
notes: also called 2-2; Ex. No. 2-2
B13: Ac*-F-V-P-T-T-V-(N-Me)A-(p-Cl)F-(N-Me)A-E-A-P-C*-NH2 (peptide)
peptide: {CH2CO}-FVPTTV[NMeA][Phe(4-Cl)][NMeA]EAPC-NH2
modifications: thioether N-13
SMILES: CC(C)[C@@H]1NC(=O)[C@H]([C@@H](C)O)NC(=O)[C@H]([C@@H](C)O)NC(=O)[C@@H]2CCCN2C(=O)[C@H](C(C)C)NC(=O)[C@H](Cc2ccccc2)NC(=O)CSC[C@@H](C(N)=O)NC(=O)[C@@H]2CCCN2C(=O)[C@H](C)NC(=O)[C@H](CCC(=O)O)NC(=O)[C@H](C)N(C)C(=O)[C@H](Cc2ccc(Cl)cc2)NC(=O)[C@H](C)N(C)C1=O
notes: also called 2-6; Ex. No. 2-6
B14: Ac*-F-V-P-T-T-F-(N-Me)A-(p-Cl)F-(N-Me)A-P-A-P-C*-NH2 (peptide)
peptide: {CH2CO}-FVPTTF[NMeA][Phe(4-Cl)][NMeA]PAPC-NH2
modifications: thioether N-13
SMILES: CC(C)[C@@H]1NC(=O)[C@H](Cc2ccccc2)NC(=O)CSC[C@@H](C(N)=O)NC(=O)[C@@H]2CCCN2C(=O)[C@H](C)NC(=O)[C@@H]2CCCN2C(=O)[C@H](C)N(C)C(=O)[C@H](Cc2ccc(Cl)cc2)NC(=O)[C@H](C)N(C)C(=O)[C@H](Cc2ccccc2)NC(=O)[C@H]([C@@H](C)O)NC(=O)[C@H]([C@@H](C)O)NC(=O)[C@@H]2CCCN2C1=O
notes: also called 2-1; Ex. No. 2-1
B15: Ac*-F-V-N-T-T-F-(N-Me)A-B-(N-Me)A-(N-Me)E-A-P-C*-NHEt (peptide)
peptide: {CH2CO}-FVNTTF[NMeA][Bip][NMeA][NMeE]APC-NHEt
modifications: thioether N-13
SMILES: CCNC(=O)[C@@H]1CSCC(=O)N[C@@H](Cc2ccccc2)C(=O)N[C@@H](C(C)C)C(=O)N[C@@H](CC(N)=O)C(=O)N[C@@H]([C@@H](C)O)C(=O)N[C@@H]([C@@H](C)O)C(=O)N[C@@H](Cc2ccccc2)C(=O)N(C)[C@@H](C)C(=O)N[C@@H](Cc2ccc(-c3ccccc3)cc2)C(=O)N(C)[C@@H](C)C(=O)N(C)[C@@H](CCC(=O)O)C(=O)N[C@@H](C)C(=O)N2CCC[C@H]2C(=O)N1
notes: also called 3-1; Ex. No. 3-1

Bridge positions count the residues as written; N and C are the ends. Square brackets hold non-standard residues; d marks the D form. Bip = N[C@@H](Cc1ccc(-c2ccccc2)cc1)C(=O)O; Phe(4-Cl) = N[C@@H](Cc1ccc(Cl)cc1)C(=O)O; NMeF = CN[C@@H](Cc1ccccc1)C(=O)O; NMeE = CN[C@@H](CCC(=O)O)C(=O)O; hSer = N[C@@H](CCO)C(=O)O; NMeA = CN[C@@H](C)C(=O)O

In this assay the target is T1, Human PCSK9 Alexa Fluor 647 (human, UniProt Q8NBP7 31-692, limits assumed, Alexa Fluor 647 label (site not stated)).
T1 construct: Labelled tracer of the TR-FRET assay, 16 nM stock; also called proprotein convertase subtilisin/kexin type 9
T1 sequence (Q8NBP7 31-692 limits assumed): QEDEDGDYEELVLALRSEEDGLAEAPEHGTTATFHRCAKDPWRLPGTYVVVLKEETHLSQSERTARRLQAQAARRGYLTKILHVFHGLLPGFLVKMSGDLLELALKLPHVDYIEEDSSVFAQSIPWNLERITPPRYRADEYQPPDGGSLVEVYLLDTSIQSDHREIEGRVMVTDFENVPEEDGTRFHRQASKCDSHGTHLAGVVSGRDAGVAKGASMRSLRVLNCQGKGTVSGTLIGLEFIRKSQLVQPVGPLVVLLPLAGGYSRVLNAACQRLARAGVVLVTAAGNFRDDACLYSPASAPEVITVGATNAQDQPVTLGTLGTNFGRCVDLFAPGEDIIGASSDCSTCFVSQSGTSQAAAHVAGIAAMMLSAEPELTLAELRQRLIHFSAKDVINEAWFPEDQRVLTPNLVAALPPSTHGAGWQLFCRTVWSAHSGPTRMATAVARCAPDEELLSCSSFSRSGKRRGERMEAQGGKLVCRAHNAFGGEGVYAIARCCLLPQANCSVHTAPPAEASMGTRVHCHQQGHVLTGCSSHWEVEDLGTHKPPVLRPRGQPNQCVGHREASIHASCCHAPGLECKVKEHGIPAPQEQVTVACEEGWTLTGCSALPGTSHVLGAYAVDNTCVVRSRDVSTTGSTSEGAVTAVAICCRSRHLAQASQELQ
Put plainly: TR-FRET competition: PCSK9-Alexa Fluor 647 vs LDLR ECD-Eu kryptate. As to the method: A Proxi plate-low volume assay plate was used for the assay. […] Following a 30 minute incubation, 5 uL of 4 nM Human LDLR extracellular domain-Europium Kryptate was added and the mixture was incubated for an additional 2 hours.
The TR-FRET signal was measured on an EnVision or PheraStar instrument with a 60 μs delay, 330 nm excitation and 665 nm emission (FRET), and 330 nm excitation and 615 nm (Europium). The FRET ratio (FRET/Europium) was used for calculations.
For B1, the half-maximal inhibitory concentration (IC50) (usually the concentration that inhibits the measured activity by half) was found to be 17 nM and the Maximum % inhibition was determined as 91%.
B2 showed an IC50 of 11 nM and a Maximum % inhibition of 53%.
In the same order, the values of B3 are 1.8 nM and 28%.
With B4, the IC50 is 410 nM and the Maximum % inhibition was 55%.
Regarding B5, the IC50 worked out at 0.04 nM and the Maximum % inhibition amounted to 75%.
In the same order, the values of B6 are 6.8 nM and 70%.
On the same counts, the results for B7 are 7.4 nM and 91%.
For the molecule B8, the IC50 is 7.2 nM and the Maximum % inhibition amounted to 81%.
In the same order, the values of B9 are 12 nM and 49%.
On the same counts, the results for B10 are 22 nM and 36%.
On the same counts, the results for B11 are 4.2 nM and 83%.
In the case of B12, the IC50 was 0.4 nM and the Maximum % inhibition amounted to 72%.
In turn, B13 displayed an IC50 of 5.4 nM and a Maximum % inhibition of 83%.
On the same counts, the results for B14 are 11.5 nM and 50%.
The molecule B15 came in with an IC50 of 85 nM and a Maximum % inhibition of 61%.
